From US20120058906A1

Experiments:
[1] = biological target: rHuman Erythropoietin R/Fc Chimera, CF (R&D Systems Cat#963-ER) (human) (UniProt P19235); test: MSD ECL multi-spot plate; Fab 57.5 nM; blank spot 954
[2] = biological target: rHuman CD44/Fc Chimera, CF (R&D Systems Cat#3660-CD) (human) (UniProt P16070); test: as above
[3] = biological target: rHuman EGF R/Fc Chimera, CF (R&D Systems Cat#344-ER) (human) (UniProt P00533); test: as above
[4] = biological target: rHuman HGF R/c-MET/Fc Chimera, CF (R&D Systems Cat#358-MT/CF) (human) (UniProt P08581); test: as above
[5] = biological target: rHuman IGF-1 sR (IGF-1 sR), CF (R&D Systems Cat#391-GR) (human) (UniProt P08069); test: as above
[6] = biological target: rHuman ErbB2/Fc Chimera, CF (R&D Systems Cat#1129-ER) (human) (UniProt P04626); test: as above
[7] = biological target: rHuman Erythropoietin R/Fc Chimera, CF (R&D Systems Cat#963-ER) (human) (UniProt P19235); test: MSD ECL multi-spot plate; Fab 920 nM; blank spot 4082
[8] = biological target: rHuman CD44/Fc Chimera, CF (R&D Systems Cat#3660-CD) (human) (UniProt P16070); test: as above
[9] = biological target: rHuman EGF R/Fc Chimera, CF (R&D Systems Cat#344-ER) (human) (UniProt P00533); test: as above
[10] = biological target: rHuman HGF R/c-MET/Fc Chimera, CF (R&D Systems Cat#358-MT/CF) (human) (UniProt P08581); test: as above
[11] = biological target: rHuman IGF-1 sR (IGF-1 sR), CF (R&D Systems Cat#391-GR) (human) (UniProt P08069); test: as above
[12] = biological target: rHuman ErbB2/Fc Chimera, CF (R&D Systems Cat#1129-ER) (human) (UniProt P04626); test: as above
[13] = biological target: rHuman Erythropoietin R/Fc Chimera, CF (R&D Systems Cat#963-ER) (human) (UniProt P19235); test: MSD ECL multi-spot plate; Fab 230 nM; blank spot 1656
[14] = biological target: rHuman CD44/Fc Chimera, CF (R&D Systems Cat#3660-CD) (human) (UniProt P16070); test: as above
[15] = biological target: rHuman EGF R/Fc Chimera, CF (R&D Systems Cat#344-ER) (human) (UniProt P00533); test: as above
[16] = biological target: rHuman HGF R/c-MET/Fc Chimera, CF (R&D Systems Cat#358-MT/CF) (human) (UniProt P08581); test: as above
[17] = biological target: rHuman IGF-1 sR (IGF-1 sR), CF (R&D Systems Cat#391-GR) (human) (UniProt P08069); test: as above
[18] = biological target: rHuman ErbB2/Fc Chimera, CF (R&D Systems Cat#1129-ER) (human) (UniProt P04626); test: as above
[19] = biological target: rHuman Erythropoietin R/Fc Chimera, CF (R&D Systems Cat#963-ER) (human) (UniProt P19235); test: MSD ECL multi-spot plate; Fab 14.375 nM; blank spot 738
[20] = biological target: rHuman CD44/Fc Chimera, CF (R&D Systems Cat#3660-CD) (human) (UniProt P16070); test: as above
[21] = biological target: rHuman EGF R/Fc Chimera, CF (R&D Systems Cat#344-ER) (human) (UniProt P00533); test: as above
[22] = biological target: rHuman HGF R/c-MET/Fc Chimera, CF (R&D Systems Cat#358-MT/CF) (human) (UniProt P08581); test: as above
[23] = biological target: rHuman IGF-1 sR (IGF-1 sR), CF (R&D Systems Cat#391-GR) (human) (UniProt P08069); test: as above
[24] = biological target: rHuman ErbB2/Fc Chimera, CF (R&D Systems Cat#1129-ER) (human) (UniProt P04626); test: as above
[25] = biological target: rHuman EGF R/Fc Chimera, CF (R&D Systems Cat#344-ER) (human) (UniProt P00533); test: MSD ECL multi-spot assay, antigen spotted on plate, Fab 0.93 uM; blank spot 4760

Chain of rHuman Erythropoietin R/Fc Chimera, CF (R&D Systems Cat#963-ER) (human) (P19235 25-250, change not shown): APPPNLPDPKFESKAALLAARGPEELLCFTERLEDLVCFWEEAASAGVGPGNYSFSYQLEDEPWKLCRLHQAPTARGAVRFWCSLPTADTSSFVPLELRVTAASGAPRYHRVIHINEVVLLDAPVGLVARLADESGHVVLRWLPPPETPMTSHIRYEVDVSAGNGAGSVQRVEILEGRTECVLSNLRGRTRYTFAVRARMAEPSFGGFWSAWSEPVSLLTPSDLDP

Fab VH1-46_IGHD3-10*01_IGHJ4*01 & L12_IGKJ1*01
ECL signal [1]: 4040 ECL signal | ECL signal [2]: 2310 ECL signal | ECL signal [3]: 3860 ECL signal | ECL signal [4]: 2300 ECL signal | ECL signal [5]: 2830 ECL signal | ECL signal [6]: 2450 ECL signal | ECL signal [7]: 16400 ECL signal | ECL signal [8]: 9700 ECL signal | ECL signal [9]: 13400 ECL signal | ECL signal [10]: 10700 ECL signal | ECL signal [11]: 10200 ECL signal | ECL signal [12]: 10900 ECL signal | ECL signal [13]: 6950 ECL signal | ECL signal [14]: 3820 ECL signal | ECL signal [15]: 5720 ECL signal | ECL signal [16]: 3930 ECL signal | ECL signal [17]: 4760 ECL signal | ECL signal [18]: 4080 ECL signal | ECL signal [19]: 2720 ECL signal | ECL signal [20]: 1490 ECL signal | ECL signal [21]: 2670 ECL signal | ECL signal [22]: 1600 ECL signal | ECL signal [23]: 1750 ECL signal | ECL signal [24]: 1590 ECL signal | ECL signal [25]: 15600
